Data published in PMC11437398.

Molecular target: rabies virus glycoprotein (G) (rabies virus (strain CVS-27)) (UniProt O92284)
Experiment: cryo-electron tomography

Question: How did the stoichiometry N turn out when “rabies virus glycoprotein (G) (from UniProt O92284 20-524) (natural protein)” was run?
Answer: Its stoichiometry N is 3.
